B1: F2.92.1 human-murine chimeric antibody (antibody, human IgG1, kappa, V domains shown)
VH: QVQLQQSGAELVRPGASVKLSCKASGYIFSDYEIHWVKQTPVHGLECIGAVDPETGGTAYNQKFKGKATLTADKSSSTAYMELRSLTSEDSAVYFCTRFYSFAYWGQGTLVTVST
VL: DVVMTQTPLSLPVSLGDQGSISCRSSQSLVHSNGNTYLQWYLQKPGQSPKLLIYKVSNRFSGVPDRFSGSGSGTDFTLKISRVEAEDLGVYFCCQSTHVLPTFGGGTKLEIKR
B2: F2.152.3 human-murine chimeric antibody (antibody, human IgG1, kappa, V domains shown)
VH: EVQLQQSGPELVKPGASVKMSCKASGYTFTDYYMTWVKQSHGKSLEWIGRVNPRNGDTTYNQKFEGRATLTLDKSLSTAFMQLNSLTSEDSAVYYCINSKGHFDYWGQGTTLTVSS
VL: DVLMTQTPLSLPVSLGDQASISCRSSQSIVHSNGNTYLEWFLQKPGQSPKSLIYKVSNRFSGVPDRFSGSGSGTDFTLKISRVEAEDLGVYYCFQGSHVPPTFGAGTKLELKR
B3: F3.38.7 human-murine chimeric antibody (antibody, human IgG1, kappa, V domains shown)
VH: QVQLQQSGAELVRPGASVKLSCKASGYTFTDYEIHWVKQTPVLGLEWIGAIDPKTGNTAYNQKFMGKATLTADKSSTTAYMDLRSLTSEDSAVYYCTRYFSFAYWGQGTLVTVSA
VL: DVLMTQTPLSLPVSLGDQASISCRSSQTFVHSNGNTYLQWYLQKPGQSPKLLIYKVSNRFSGVPDRFSGSGSGTDFTLKISRVEAEDLGVYYCFQGSHVPYTFGSGTKLEIKR
B4: F3.54.12 human-murine chimeric antibody (antibody, human IgG1, kappa, V domains shown)
VH: QVQLQQSGAELVRPGASVKLSCKASGYTFTDYEMHWVKQTPVHGLEWIGAIDPETGNTAYIQKFKGKATLTTDKSSSTAYMELRSLTSEDSAVYYCTRFYSYSHWGQGTTLTVSS
VL: DVVMTQTPLSLPVSLGDQASISCRSSQSLVHSNGNTYLHWYLQKPGQSPKLLIYKVSNRFSGVPDRFSGSSSGTDFTLKISRVEAEDLGVYFCSQNTHVPPTFGGGTKLEIKR
B5: F3.81.19 human-murine chimeric antibody (antibody, human IgG1, kappa, V domains shown)
VH: QVQLQQSGAELVRPGASVKLSCKASGYTFTDYEMHWVKQTPVHGLEWIGTIDPETGNTAYNQKFKGKATLTADKSSSTAYMELRSLTSEDSAVYYCTRPYSLTYWGQGTLVTVSA
VL: DVLLTQTPLSLPVSLGDQASISCRSSQSFVHSNGDTYLQWYLQKPGQSPKLLIYKVSNRFSGVPDRFSGSGSGTDFTLKISRVEAEDLGVYYCFQGSHVPYTFGSGTKLEIKR
B6: F4.13.7 human-murine chimeric antibody (antibody, human IgG1, kappa, V domains shown)
VH: QVQLQQPGAELVKPGASVKLSCKASGYTFTNNWVHWVKQRPGQGLEWTGMIHPDSGSTIYNEKFQSKATLTVDKSSSTAYMQLSSLTSEDSAVYYCARGYYDSSSYYAMDYWGQGTSVTVSS
VL: NIQMTQTTSSLSASLGDRVTISCSASQGIFNYLNWYQQKPDGTVKLLIYYTSSLHSGVPSRFSGSGSGTDYSLTISNLEPEDIATYYCQQYSKLPWTFGGGTKLEIKR

Target: T1, murine GPC3-his protein (Sino Biological, Cat. No. 50989-M08B) (murine, UniProt Q8CFZ4 25-558)
T1 construct: Bought protein; also called murine GPC3 protein
Test: ELISA, coated murine GPC3-His;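 note: antigen coated on plates at 1 µg/mL, test antibody bound for 2 h at 37 °C, detected with HRP-conjugated secondary antibody and TMB substrate after acid stop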
Protocol: The specific method is described as follows: The antigen protein was diluted with PBS to a final concentration of 1 μg/mL, and the diluent was added to a 96-well ELISA plate at 50 μL/well. The plate was sealed with a plastic film and incubated at 4° C. overnight, washed twice with PBS the next day, and a blocking solution [PBS+2% (w/w) BSA] was added for blocking at room temperature for 2 h. […] After incubation at 37° C. for 2 h, the plate was washed 3 times with PBS. A horseradish peroxidase (HRP)-labeled secondary antibody (purchased from Merck, Cat. No. AP113P) was added for incubation at 37° C. for 1 h, and the plate was washed 5 times with PBS. A TMB substrate was added at 50 μL/well for incubation at room temperature for 10 min, then a stop solution (1.0M HCl) was added at 50 μL/well. An ELISA plate reader (Multimode Plate Reader, EnSight, purchased from Perkin Elmer) was used to read OD_{450 nm} values, with results as shown in Table 4 to Table 6, FIG. 1A, FIG. 1B, and FIG. 1C.

T1 sequence (Q8CFZ4 25-558 limits assumed): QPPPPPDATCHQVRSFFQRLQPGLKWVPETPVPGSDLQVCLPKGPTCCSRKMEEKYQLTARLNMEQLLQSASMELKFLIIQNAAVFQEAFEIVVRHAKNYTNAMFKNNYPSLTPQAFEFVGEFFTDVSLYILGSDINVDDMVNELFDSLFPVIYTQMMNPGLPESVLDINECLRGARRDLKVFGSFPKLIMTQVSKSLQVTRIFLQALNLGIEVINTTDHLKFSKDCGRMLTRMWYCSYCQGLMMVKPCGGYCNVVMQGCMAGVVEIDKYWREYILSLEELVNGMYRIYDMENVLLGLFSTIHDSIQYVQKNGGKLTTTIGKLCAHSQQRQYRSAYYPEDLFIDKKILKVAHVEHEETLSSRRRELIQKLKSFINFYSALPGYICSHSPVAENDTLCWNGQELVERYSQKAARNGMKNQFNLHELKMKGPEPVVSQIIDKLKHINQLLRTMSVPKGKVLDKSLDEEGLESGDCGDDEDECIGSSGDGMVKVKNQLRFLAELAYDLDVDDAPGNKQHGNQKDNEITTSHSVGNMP

Binder	OD450 at 0.0001 nM antibody [OD450 nm]	OD450 at 0.001 nM antibody [OD450 nm]	OD450 at 0.01 nM antibody [OD450 nm]	OD450 at 0.1 nM antibody [OD450 nm]	OD450 at 1 nM antibody [OD450 nm]	OD450 at 10 nM antibody [OD450 nm]	OD450 at 100 nM antibody [OD450 nm]
B1	0.04	0.05	0.05	0.07	0.05	0.05	0.07
B2	0.05	0.12	0.67	1.94	2.54	2.53	2.47
B3	0.06	0.06	0.05	0.04	0.05	0.06	0.12
B4	0.11	0.05	0.05	0.05	0.05	0.09	0.34
B5	0.05	0.05	0.04	0.04	0.05	0.05	0.1
B6	0.06	0.11	0.54	2.12	2.86	2.88	2.87

— US20260116991A1 (HAINAN SIMCERE ZAIMING PHARMACEUTICAL, published 2026)
